Measurements: the array DNA melting data of Ke et al.

assay: melting temperature; melt of duplexes; details: sodium 0.0675 M; strand 1 µM

Row | Substance | Tm
1 | CGACGTGCGTCATGTGCTG+CAGCACATGTGGCACGTCG ((((((((..(((((((((+)))))))))..)))))))) | 54.8 °C
2 | CGACGTGCATTATGTGCTG+CAGCACATAGAGCACGTCG ((((((((..(((((((((+)))))))))..)))))))) | 51.2 °C
3 | CGACGTGCTACATGTGCTG+CAGCACATTTTGCACGTCG ((((((((.(.((((((((+)))))))).).)))))))) | 50.4 °C
4 | CGACGTGCGTCATGTGCTG+CAGCACATTTAGCACGTCG ((((((((...((((((((+))))))))...)))))))) | 51.6 °C
5 | CGACGTGCCTCATGTGCTG+CAGCACATTTGGCACGTCG (((((((((..((((((((+))))))))..))))))))) | 53.6 °C
6 | CGACGTGCGTGATGTGCTG+CAGCACATGAAGCACGTCG ((((((((.(.((((((((+)))))))).).)))))))) | 54 °C
7 | CGACGTGCTAGATGTGCTG+CAGCACATCGAGCACGTCG (((((((((.(((((((((+))))))))).))))))))) | 59.7 °C
8 | CGACGTGCGATATGTGCTG+CAGCACATGTAGCACGTCG ((((((((.(.((((((((+)))))))).).)))))))) | 54.9 °C
9 | CGACGTGCCGGATGTGCTG+CAGCACATGTGGCACGTCG (((((((((..((((((((+))))))))..))))))))) | 57.3 °C
10 | CGACGTGCCTTATGTGCTG+CAGCACATGGGGCACGTCG (((((((((..((((((((+))))))))..))))))))) | 56.1 °C
11 | CGACGTGCACAATGTGCTG+CAGCACATTGGGCACGTCG ((((((((.((((((((((+)))))))))).)))))))) | 61.2 °C
12 | CGACGTGCCCCATGTGCTG+CAGCACATACCGCACGTCG ((((((((...((((((((+))))))))...)))))))) | 45.8 °C
13 | CGACGTGCTGTATGTGCTG+CAGCACATACAGCACGTCG (((((((((((((((((((+))))))))))))))))))) | 62.1 °C
14 | CGACGTGCGAGATGTGCTG+CAGCACATGCAGCACGTCG ((((((((...((((((((+))))))))...)))))))) | 53.7 °C
15 | CGACGTGCAGCATGTGCTG+CAGCACATCACGCACGTCG ((((((((...((((((((+))))))))...)))))))) | 46.7 °C
16 | CGACGTGCGCTATGTGCTG+CAGCACATCACGCACGTCG (((((((((..((((((((+))))))))..))))))))) | 53.3 °C
17 | CGACGTGCTCCATGTGCTG+CAGCACATGAAGCACGTCG (((((((((.(((((((((+))))))))).))))))))) | 57.4 °C
18 | CGACGTGCTAGATGTGCTG+CAGCACATTTCGCACGTCG ((((((((.(.((((((((+)))))))).).)))))))) | 50.1 °C
19 | CGACGTGCATGATGTGCTG+CAGCACATAAAGCACGTCG ((((((((.(.((((((((+)))))))).).)))))))) | 50.7 °C
20 | CGACGTGCGTAATGTGCTG+CAGCACATCGTGCACGTCG ((((((((...((((((((+))))))))...)))))))) | 44.3 °C
21 | CGACGTGCCACATGTGCTG+CAGCACATGTGGCACGTCG (((((((((((((((((((+))))))))))))))))))) | 66.4 °C
22 | CGACGTGCATAATGTGCTG+CAGCACATCATGCACGTCG ((((((((((.((((((((+)))))))).)))))))))) | 54 °C
23 | CGACGTGCACGATGTGCTG+CAGCACATCTGGCACGTCG ((((((((..(((((((((+)))))))))..)))))))) | 53.6 °C
24 | CGACGTGCGTCATGTGCTG+CAGCACATCCGGCACGTCG ((((((((...((((((((+))))))))...)))))))) | 48.7 °C

Row | Substance | Tm
25 | CGACGTGCCTTATGTGCTG+CAGCACATAGGGCACGTCG (((((((((.(((((((((+))))))))).))))))))) | 57.7 °C
26 | CGACGTGCAAGATGTGCTG+CAGCACATCTTGCACGTCG (((((((((((((((((((+))))))))))))))))))) | 63.8 °C
27 | CGACGTGCCATATGTGCTG+CAGCACATAGCGCACGTCG ((((((((..(((((((((+)))))))))..)))))))) | 50 °C
28 | CGACGTGCCTGATGTGCTG+CAGCACATCGAGCACGTCG ((((((((..(((((((((+)))))))))..)))))))) | 55.3 °C
29 | CGACGTGCCATATGTGCTG+CAGCACATTATGCACGTCG ((((((((...((((((((+))))))))...)))))))) | 50.3 °C
30 | CGACGTGCGGGATGTGCTG+CAGCACATCGGGCACGTCG ((((((((..(((((((((+)))))))))..)))))))) | 56.1 °C
31 | CGACGTGCAGCATGTGCTG+CAGCACATGTGGCACGTCG ((((((((..(((((((((+)))))))))..)))))))) | 55.5 °C
32 | CGACGTGCGCTATGTGCTG+CAGCACATACCGCACGTCG (((((((((.(((((((((+))))))))).))))))))) | 54.8 °C
33 | CGACGTGCCCAATGTGCTG+CAGCACATCCAGCACGTCG ((((((((...((((((((+))))))))...)))))))) | 49 °C
34 | CGACGTGCTGGATGTGCTG+CAGCACATTACGCACGTCG ((((((((...((((((((+))))))))...)))))))) | 51.1 °C
35 | CGACGTGCCGCATGTGCTG+CAGCACATGGGGCACGTCG (((((((((.(((((((((+))))))))).))))))))) | 62.6 °C
36 | CGACGTGCACTATGTGCTG+CAGCACATCCAGCACGTCG ((((((((...((((((((+))))))))...)))))))) | 42.6 °C
37 | CGACGTGCCTAATGTGCTG+CAGCACATAAAGCACGTCG ((((((((.(.((((((((+)))))))).).)))))))) | 50.3 °C
38 | CGACGTGCACTATGTGCTG+CAGCACATTACGCACGTCG ((((((((...((((((((+))))))))...)))))))) | 43.6 °C
39 | CGACGTGCGTTATGTGCTG+CAGCACATTGAGCACGTCG ((((((((...((((((((+))))))))...)))))))) | 54 °C
40 | CGACGTGCGAAATGTGCTG+CAGCACATCCTGCACGTCG ((((((((...((((((((+))))))))...)))))))) | 49.5 °C
41 | CGACGTGCAATATGTGCTG+CAGCACATGACGCACGTCG ((((((((...((((((((+))))))))...)))))))) | 48.2 °C
42 | CGACGTGCTTAATGTGCTG+CAGCACATCGCGCACGTCG ((((((((...((((((((+))))))))...)))))))) | 46.7 °C
43 | CGACGTGCATAATGTGCTG+CAGCACATTGGGCACGTCG ((((((((..(((((((((+)))))))))..)))))))) | 54.2 °C
44 | CGACGTGCCTAATGTGCTG+CAGCACATGGAGCACGTCG ((((((((...((((((((+))))))))...)))))))) | 51.9 °C
45 | CGACGTGCGCCATGTGCTG+CAGCACATAATGCACGTCG ((((((((...((((((((+))))))))...)))))))) | 48.6 °C
46 | CGACGTGCGACATGTGCTG+CAGCACATTGCGCACGTCG (((((((((..((((((((+))))))))..))))))))) | 55.3 °C
47 | CGACGTGCGACATGTGCTG+CAGCACATCATGCACGTCG ((((((((...((((((((+))))))))...)))))))) | 49.1 °C
48 | CGACGTGCAAGATGTGCTG+CAGCACATGGAGCACGTCG ((((((((...((((((((+))))))))...)))))))) | 51.6 °C

Row | Substance | Tm
49 | CGACGTGCGAAATGTGCTG+CAGCACATATCGCACGTCG ((((((((((.((((((((+)))))))).)))))))))) | 57.4 °C
50 | CGACGTGCCGAATGTGCTG+CAGCACATTGTGCACGTCG ((((((((..(((((((((+)))))))))..)))))))) | 50.1 °C
51 | CGACGTGCCCAATGTGCTG+CAGCACATAATGCACGTCG ((((((((...((((((((+))))))))...)))))))) | 47.6 °C
52 | CGACGTGCAATATGTGCTG+CAGCACATGTAGCACGTCG ((((((((.(.((((((((+)))))))).).)))))))) | 52 °C
53 | CGACGTGCGGGATGTGCTG+CAGCACATCTTGCACGTCG ((((((((..(((((((((+)))))))))..)))))))) | 57.3 °C
54 | CGACGTGCGTAATGTGCTG+CAGCACATGTCGCACGTCG (((((((((..((((((((+))))))))..))))))))) | 56 °C
55 | CGACGTGCCCGATGTGCTG+CAGCACATGTCGCACGTCG ((((((((...((((((((+))))))))...)))))))) | 48.4 °C
56 | CGACGTGCCAAATGTGCTG+CAGCACATGTTGCACGTCG ((((((((.(.((((((((+)))))))).).)))))))) | 50.5 °C
57 | CGACGTGCGCAATGTGCTG+CAGCACATTAGGCACGTCG ((((((((..(((((((((+)))))))))..)))))))) | 52.7 °C
58 | CGACGTGCAGAATGTGCTG+CAGCACATTCAGCACGTCG ((((((((.((((((((((+)))))))))).)))))))) | 57.9 °C
59 | CGACGTGCGCGATGTGCTG+CAGCACATTAAGCACGTCG ((((((((...((((((((+))))))))...)))))))) | 55 °C
60 | CGACGTGCACGATGTGCTG+CAGCACATTGCGCACGTCG ((((((((.(.((((((((+)))))))).).)))))))) | 52.1 °C
61 | CGACGTGCCTTATGTGCTG+CAGCACATTACGCACGTCG ((((((((.(.((((((((+)))))))).).)))))))) | 47.7 °C
62 | CGACGTGCGGTATGTGCTG+CAGCACATACAGCACGTCG ((((((((.((((((((((+)))))))))).)))))))) | 59.5 °C
63 | CGACGTGCCGCATGTGCTG+CAGCACATTATGCACGTCG ((((((((...((((((((+))))))))...)))))))) | 46.4 °C
64 | CGACGTGCAAAATGTGCTG+CAGCACATGGCGCACGTCG ((((((((...((((((((+))))))))...)))))))) | 54 °C
65 | CGACGTGCGCTATGTGCTG+CAGCACATGACGCACGTCG (((((((((..((((((((+))))))))..))))))))) | 52.4 °C
66 | CGACGTGCCTGATGTGCTG+CAGCACATGGGGCACGTCG (((((((((..((((((((+))))))))..))))))))) | 56.4 °C
67 | CGACGTGCGATATGTGCTG+CAGCACATAGAGCACGTCG ((((((((..(((((((((+)))))))))..)))))))) | 58.5 °C
68 | CGACGTGCACCATGTGCTG+CAGCACATCTGGCACGTCG ((((((((...((((((((+))))))))...)))))))) | 43.7 °C
69 | CGACGTGCCTAATGTGCTG+CAGCACATATAGCACGTCG ((((((((...((((((((+))))))))...)))))))) | 49.6 °C
70 | CGACGTGCCGAATGTGCTG+CAGCACATAGAGCACGTCG ((((((((...((((((((+))))))))...)))))))) | 49.9 °C
71 | CGACGTGCCGAATGTGCTG+CAGCACATGGAGCACGTCG ((((((((...((((((((+))))))))...)))))))) | 53.1 °C
72 | CGACGTGCATCATGTGCTG+CAGCACATTAAGCACGTCG ((((((((.(.((((((((+)))))))).).)))))))) | 48.6 °C
